Results published in patent publication US20240181050A1 (COMPASS THERAPEUTICS, published 2024).

Columns and labels:
Experiment in all cases: soluble point mutant tested for binding to mAb1; method not named
[1] = target: T1, human CD137 point mutant K114T, soluble protein (human, UniProt Q07011 24-186)
T1 construct: Printed as 'All 4 mutations tested at K114 (R, E, N, T)'; It was expressed as a soluble protein

[2] = target: T2, human CD137 point mutant K114R, soluble protein (human, UniProt Q07011 24-186)
T2 construct: Printed as 'All 4 mutations tested at K114 (R, E, N, T)'; It was isolated from the extracellular-domain library and expressed as a soluble protein

[3] = target: T3, human CD137 point mutant K114E, soluble protein (human, UniProt Q07011 24-186)
T3 construct: Printed as 'All 4 mutations tested at K114 (R, E, N, T)'; It was expressed as a soluble protein

[4] = target: T4, human CD137 point mutant K114N, soluble protein (human, UniProt Q07011 24-186)
T4 construct: Printed as 'All 4 mutations tested at K114 (R, E, N, T)'; It was expressed as a soluble protein
T4 sequence (Q07011 24-186 K114N limits assumed): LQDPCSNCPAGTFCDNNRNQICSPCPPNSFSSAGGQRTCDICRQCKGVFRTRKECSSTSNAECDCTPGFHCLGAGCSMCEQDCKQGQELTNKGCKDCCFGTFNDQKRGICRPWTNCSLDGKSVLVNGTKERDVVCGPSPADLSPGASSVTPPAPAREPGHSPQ

T1 sequence (Q07011 24-186 K114T limits assumed): as the sequence (Q07011 24-186 K114N limits assumed) above, with N91T counted along it
T2 sequence (Q07011 24-186 K114R limits assumed): as the sequence (Q07011 24-186 K114N limits assumed) above, with N91R counted along it
T3 sequence (Q07011 24-186 K114E limits assumed): as the sequence (Q07011 24-186 K114N limits assumed) above, with N91E counted along it

- binding result [1]: no binding
- binding result [2]: no binding
- binding result [3]: no binding
- binding result [4]: no binding
B1: anti-CD137 mAb1 (antibody, human IgG4 S228P, kappa, V domains shown)
VH: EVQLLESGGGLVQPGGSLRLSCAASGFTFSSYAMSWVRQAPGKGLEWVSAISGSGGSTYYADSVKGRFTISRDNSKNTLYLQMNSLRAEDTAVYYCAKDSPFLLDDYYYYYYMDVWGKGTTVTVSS
VL: DIQMTQSPSSVSASVGDRVTITCRASQGISSWLAWYQQKPGKAPKLLIYAASSLQSGVPSRFSGSGSGTDFTLTISSLQPEDFATYYCQQGHLFPITFGGGTKVEIKR
notes: also called parental mAb1
